Experimental data: patent publication US20190191748A1

Target: moAb G12 conjugated to HRP (peroxidase)
Test: competitive ELISA, gliadin-coated plate, G12-HRP; reference OM719

Row | Substance | cross-reactivity (CR) = (IC50 of OM719 / IC50 of the variety) x 100 [%]
1 | avenins (prolamins) extracted from oat variety OH727 | 25
2 | avenins (prolamins) extracted from oat variety OA729 | 75
3 | avenins (prolamins) extracted from oat variety OE717 | 60
4 | avenins (prolamins) extracted from oat variety OL715 | 24
5 | avenins (prolamins) extracted from oat variety OC723 | 12
